Test results published in paper PMC5727443.

Target: hypoxia-inducible factor 2α (HIF-2α), wild type (UniProt Q99814)
Test: co-IP

Sequence of UniProt Q99814 (Q99814 whole entry): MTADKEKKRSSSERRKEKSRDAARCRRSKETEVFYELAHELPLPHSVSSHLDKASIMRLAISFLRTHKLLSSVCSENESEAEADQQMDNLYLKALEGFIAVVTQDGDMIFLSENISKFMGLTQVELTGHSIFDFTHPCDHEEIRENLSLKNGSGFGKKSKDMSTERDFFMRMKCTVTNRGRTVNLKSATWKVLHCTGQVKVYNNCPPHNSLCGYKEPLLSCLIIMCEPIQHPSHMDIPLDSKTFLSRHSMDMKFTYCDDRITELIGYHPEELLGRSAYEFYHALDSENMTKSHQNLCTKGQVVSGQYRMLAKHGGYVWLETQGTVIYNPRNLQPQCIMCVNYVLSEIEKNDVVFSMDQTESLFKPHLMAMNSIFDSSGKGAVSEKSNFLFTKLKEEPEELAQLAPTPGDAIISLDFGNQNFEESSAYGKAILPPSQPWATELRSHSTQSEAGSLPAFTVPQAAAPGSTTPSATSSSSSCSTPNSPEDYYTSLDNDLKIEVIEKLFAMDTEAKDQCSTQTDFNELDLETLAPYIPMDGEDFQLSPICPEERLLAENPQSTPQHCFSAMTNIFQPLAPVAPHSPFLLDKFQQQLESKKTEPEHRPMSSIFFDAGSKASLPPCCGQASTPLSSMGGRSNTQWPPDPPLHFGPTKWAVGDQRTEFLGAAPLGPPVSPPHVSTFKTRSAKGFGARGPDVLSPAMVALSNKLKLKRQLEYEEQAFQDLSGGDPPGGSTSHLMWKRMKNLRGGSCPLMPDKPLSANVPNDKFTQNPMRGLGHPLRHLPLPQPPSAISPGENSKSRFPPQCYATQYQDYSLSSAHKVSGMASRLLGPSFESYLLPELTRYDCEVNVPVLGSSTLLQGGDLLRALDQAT

mouse Tet1 (wild type, whole) (enzyme) gave a PHD2 bound to HIF-2α with Tet1 co-expressed, fold of without Tet1 of 0.47 fold and a pVHL bound to HIF-2α with Tet1 over-expressed, fold of without Tet1 of 0.7 fold.
